Data from patent US20240352133A1.
Residue numbers refer to the chain shown, from its start. Values belong to the binder of their own block, whether it stands above or below them.

How the values were obtained:
[1] = molecular target: Recombinant human his-tagged IGF 1R extracellular domain protein (human) (UniProt P08069); assay: SPR, captured antibody, dissociation at pH 6
[2] = molecular target: Recombinant human his-tagged IGF 1R extracellular domain protein (human) (UniProt P08069); assay: SPR, captured antibody, pH 7.4

B1: VRDN-03115 (antibody, V domains shown)
VH: QVQLVESGGGVVQPGRSLRLSCAASGFTFSDHYMDWVRQAPGKGLEWVAIIWFDGSSKYYPGSVKGRFTISRDNSKNTLYLQMNSLRAEDTAVYYCARELGRRYFDIWGRGTLVTVSS
VL: EIVMTQSPATLSVSPGERATLSCRASQGVSSYLAWYQQKPGQAPRLLIYGASTRATGIPARFSGSGSGTEFTLTISSLQSEDFAVYYCQQRSRWPPWTFGQGTKLEIK
- Kd [1]: 1.21 nM
- koff [1]: 0.000297 s⁻¹
- kon [1]: 246000 M⁻¹ s⁻¹

B3: VRDN-03135 (antibody, V domains shown)
VH: B1 VH with Q1E, S30D, H32Y, Y33A, D35H, P61A, G62D, R110Q
VL: B1 VL with Y32N, Q101G
- Kd [2]: 4.06 nM
- koff [2]: 0.000414 s⁻¹
- kon [2]: 102000 M⁻¹ s⁻¹

B4: VRDN-03131 (antibody, V domains shown)
VH: B1 VH with Q1E, D31S, H32Y, Y33S, D35H, S57E, P61V, G62D, G66S, R110Q
VL: B1 VL with Y32N, Q101G
- Kd [2]: 16.2 nM
- koff [2]: 0.00141 s⁻¹
- kon [2]: 86900 M⁻¹ s⁻¹

B5: VRDN-03139 (antibody, V domains shown)
VH: B1 VH with Q1E, H32Y, Y33T, D35H, P61A, G62D, G66S, R110Q
VL: B1 VL with Y32N, Q101G
- Kd [2]: 2.46 nM
- koff [2]: 0.000262 s⁻¹
- kon [2]: 107000 M⁻¹ s⁻¹

B6: VRDN-03134 (antibody, V domains shown)
VH: EVQLVESGGGVVQPGRSLRLSCAASGFTFSSYSMHWVRQAPGKGLEWVAVIWYDGSSKYYADSVKSRFTISRDNSKNTLYLQMNSLRAEDTAVYYCARELGRRYFDIWGQGTLVTVSS
VL: B1 VL with Y32N, Q101G
- Kd [2]: 4.89 nM
- koff [2]: 0.0012 s⁻¹
- kon [2]: 245000 M⁻¹ s⁻¹

B7: VRDN-03128 (antibody, V domains shown)
VH: B1 VH with Q1E, H32Y, Y33T, D35H
VL: B1 VL with Y32N, Q101G
- Kd [2]: 7.3 nM
- koff [2]: 0.00241 s⁻¹
- kon [2]: 331000 M⁻¹ s⁻¹

B8: VRDN-03136 (antibody, V domains shown)
VH: B6 VH with S30D, S31D, S33T, V50I, Y53F, S66G
VL: B1 VL with Y32N, Q101G
- Kd [2]: 2.84 nM
- koff [2]: 0.000253 s⁻¹
- kon [2]: 89100 M⁻¹ s⁻¹

B12: VRDN-03132 (antibody, V domains shown)
VH: B6 VH with S66G
VL: B1 VL with Y32N, Q101G
- Kd [2]: 10.1 nM
- koff [2]: 0.004 s⁻¹
- kon [2]: 395000 M⁻¹ s⁻¹

B15: VRDN-03041 (antibody, V domains shown)
VH: QVELVESGGGVVQPGRSQRLSCAASGFTFSSYGMHWVRQAPGKGLEWVAIIWFDGSSTYYADSVRGRFTISRDNSKNTLYLQMNSLRAEDTAVYFCARELGRRYFDLWGRGTLVSVSS
VL: EIVLTQSPATLSLSPGERATLSCRASHSVSSYLAWYQQKPGQAPRLLIYDASKRATGIPARFSGSGSGTDFTLTISSLEPEDFAVYYCQQRSKWPPWTFGQGTKVESK
- Kd [2]: 3.16 nM
- koff [2]: 0.0003 s⁻¹
- kon [2]: 94900 M⁻¹ s⁻¹
- Kd [1]: 0.556 nM
- koff [1]: 3.61e-05 s⁻¹
- kon [1]: 65000 M⁻¹ s⁻¹

B16: VRDN-03042 (antibody, V domains shown)
VH: B15 VH
VL: B15 VL with H27Q, S28H
- Kd [2]: 1.53 nM
- koff [2]: 0.000172 s⁻¹
- kon [2]: 112000 M⁻¹ s⁻¹
- Kd [1]: 1.2 nM
- koff [1]: 9.44e-05 s⁻¹
- kon [1]: 78400 M⁻¹ s⁻¹

B18: VRDN-03051 (antibody, V domains shown)
VH: B15 VH
VL: B15 VL with H27Q, S52H
- Kd [2]: 1.86 nM
- koff [2]: 0.000203 s⁻¹
- kon [2]: 110000 M⁻¹ s⁻¹
- Kd [1]: 2.12 nM
- koff [1]: 0.000162 s⁻¹
- kon [1]: 76200 M⁻¹ s⁻¹

B22: VRDN-03100 (second entry of that label; VH and VL pair SEQ ID NO: 223) (antibody, V domains shown)
VH: B1 VH with D31S, H32Y, Y33S, D35H
VL: B1 VL with M4L, V13L, E70D, Q79E, S80P
- Kd [2]: 5.52 nM
- koff [2]: 0.00134 s⁻¹
- kon [2]: 244000 M⁻¹ s⁻¹
- Kd [1]: 1.69 nM
- koff [1]: 0.00107 s⁻¹
- kon [1]: 630000 M⁻¹ s⁻¹

B23: VRDN-03046 (antibody, V domains shown)
VH: B15 VH
VL: B15 VL with H27Q, Y32H
- Kd [2]: 1.58 nM
- koff [2]: 0.000162 s⁻¹
- kon [2]: 103000 M⁻¹ s⁻¹
- Kd [1]: 1.87 nM
- koff [1]: 0.000159 s⁻¹
- kon [1]: 84800 M⁻¹ s⁻¹

B24: VRDN-03043 (antibody, V domains shown)
VH: B15 VH
VL: B15 VL with H27Q, V29H
- Kd [2]: 22.4 nM
- koff [2]: 0.0111 s⁻¹
- kon [2]: 493000 M⁻¹ s⁻¹
- Kd [1]: 18.2 nM
- koff [1]: 0.0253 s⁻¹
- kon [1]: 1.39e+06 M⁻¹ s⁻¹

B25: VRDN-03044 (antibody, V domains shown)
VH: B15 VH
VL: B15 VL with H27Q, S30H
- Kd [2]: 1.96 nM
- koff [2]: 0.000192 s⁻¹
- kon [2]: 98400 M⁻¹ s⁻¹
- Kd [1]: 3.79 nM
- koff [1]: 0.000217 s⁻¹
- kon [1]: 57300 M⁻¹ s⁻¹

B29: VRDN-03098 (antibody, V domains shown)
VH: B6 VH with E1Q, V50I, Y53F, S66G, Q110R
VL: B1 VL with M4L, V13L, E70D, Q79E, S80P
- Kd [2]: 2.05 nM
- koff [2]: 0.000135 s⁻¹
- kon [2]: 65900 M⁻¹ s⁻¹
- Kd [1]: 1.24 nM
- koff [1]: 0.000306 s⁻¹
- kon [1]: 247000 M⁻¹ s⁻¹

B31: VRDN-03047 (antibody, V domains shown)
VH: B15 VH
VL: B15 VL with H27Q, L33H
- Kd [2]: 2.95 nM
- koff [2]: 0.000282 s⁻¹
- kon [2]: 95700 M⁻¹ s⁻¹
- Kd [1]: 3.77 nM
- koff [1]: 0.000294 s⁻¹
- kon [1]: 78100 M⁻¹ s⁻¹

The remaining binders from weak to strong by Kd [2], led by results:

- Kd [2]: 15.1 nM
- koff [2]: 0.0142 s⁻¹
- kon [2]: 940000 M⁻¹ s⁻¹
B2: VRDN-03137 (antibody, V domains shown)
VH: B6 VH with S30D, S31D, S33A, S66G
VL: B1 VL with Y32N, Q101G

- Kd [2]: 11.3 nM
- koff [2]: 0.00332 s⁻¹
- kon [2]: 294000 M⁻¹ s⁻¹
- Kd [1]: 14.3 nM
- koff [1]: 0.00563 s⁻¹
- kon [1]: 394000 M⁻¹ s⁻¹
B28: VRDN-03039 (antibody, V domains shown)
VH: B15 VH
VL: B15 VL with A25H, H27Q

- Kd [2]: 11 nM
- koff [2]: 0.00709 s⁻¹
- kon [2]: 646000 M⁻¹ s⁻¹
B10: VRDN-03129 (antibody, V domains shown)
VH: B6 VH with V50I, Y53F, S57N
VL: B1 VL with Y32N, Q101G

- Kd [2]: 8.75 nM
- koff [2]: 0.00433 s⁻¹
- kon [2]: 495000 M⁻¹ s⁻¹
B11: VRDN-03138 (antibody, V domains shown)
VH: B6 VH with S30D, S31D, S33T, S66G
VL: B1 VL with Y32N, Q101G

- Kd [2]: 6.51 nM
- koff [2]: 0.00228 s⁻¹
- kon [2]: 350000 M⁻¹ s⁻¹
B9: VRDN-03133 (antibody, V domains shown)
VH: B6 VH with Q110R
VL: B1 VL with Y32N, Q101G

- Kd [2]: 2.72 nM
- koff [2]: 0.000275 s⁻¹
- kon [2]: 101000 M⁻¹ s⁻¹
B13: VRDN-03130 (antibody, V domains shown)
VH: B6 VH with V50I, Y53F, A61V
VL: B1 VL with Y32N, Q101G

- Kd [2]: 2.18 nM
- koff [2]: 0.000139 s⁻¹
- kon [2]: 63700 M⁻¹ s⁻¹
- Kd [1]: 1.34 nM
- koff [1]: 0.000296 s⁻¹
- kon [1]: 221000 M⁻¹ s⁻¹
B26: VRDN-03099 (antibody, V domains shown)
VH: B6 VH with E1Q, V50I, Y53F, A61V, S66G, Q110R
VL: B1 VL with M4L, V13L, E70D, Q79E, S80P

- Kd [2]: 2.03 nM
- koff [2]: 0.00021 s⁻¹
- kon [2]: 103000 M⁻¹ s⁻¹
- Kd [1]: 2.25 nM
- koff [1]: 0.00017 s⁻¹
- kon [1]: 75800 M⁻¹ s⁻¹
B21: VRDN-03050 (antibody, V domains shown)
VH: B15 VH
VL: B15 VL with H27Q, A51H

- Kd [2]: 1.92 nM
- koff [2]: 0.000188 s⁻¹
- kon [2]: 97700 M⁻¹ s⁻¹
- Kd [1]: 1.61 nM
- koff [1]: 0.00014 s⁻¹
- kon [1]: 87000 M⁻¹ s⁻¹
B19: VRDN-03055 (antibody, V domains shown)
VH: B15 VH
VL: B15 VL with H27Q, T56H

- Kd [2]: 1.79 nM
- koff [2]: 0.000188 s⁻¹
- kon [2]: 105000 M⁻¹ s⁻¹
- Kd [1]: 1.67 nM
- koff [1]: 0.00016 s⁻¹
- kon [1]: 95500 M⁻¹ s⁻¹
B30: VRDN-03053 (antibody, V domains shown)
VH: B15 VH
VL: B15 VL with H27Q, R54H

- Kd [2]: 1.72 nM
- koff [2]: 0.000167 s⁻¹
- kon [2]: 96900 M⁻¹ s⁻¹
- Kd [1]: 1.4 nM
- koff [1]: 0.000115 s⁻¹
- kon [1]: 82000 M⁻¹ s⁻¹
B14: VRDN-03038 (antibody, V domains shown)
VH: B15 VH
VL: B15 VL with R24H, H27Q

- Kd [2]: 1.56 nM
- koff [2]: 0.000183 s⁻¹
- kon [2]: 117000 M⁻¹ s⁻¹
- Kd [1]: 2.7 nM
- koff [1]: 0.000201 s⁻¹
- kon [1]: 74300 M⁻¹ s⁻¹
B27: VRDN-03049 (antibody, V domains shown)
VH: B15 VH
VL: B15 VL with H27Q, D50H

- Kd [2]: 1.29 nM
- koff [2]: 0.000135 s⁻¹
- kon [2]: 105000 M⁻¹ s⁻¹
- Kd [1]: 0.624 nM
- koff [1]: 5.02e-05 s⁻¹
- kon [1]: 80500 M⁻¹ s⁻¹
B17: VRDN-03045 (antibody, V domains shown)
VH: B15 VH
VL: B15 VL with H27Q, S31H

- Kd [2]: 1.11 nM
- koff [2]: 0.000104 s⁻¹
- kon [2]: 93500 M⁻¹ s⁻¹
- Kd [1]: 0.866 nM
- koff [1]: 8.18e-05 s⁻¹
- kon [1]: 94500 M⁻¹ s⁻¹
B20: VRDN-03054 (antibody, V domains shown)
VH: B15 VH
VL: B15 VL with H27Q, A55H

- Kd [2]: 0.785 nM
- koff [2]: 7.02e-05 s⁻¹
- kon [2]: 89300 M⁻¹ s⁻¹
- Kd [1]: 1.23 nM
- koff [1]: 0.000268 s⁻¹
- kon [1]: 219000 M⁻¹ s⁻¹
B32: VRDN-03101 (antibody, V domains shown)
VH: B1 VH with H32Y, Y33T, D35H, P61A, G62D
VL: B1 VL with M4L, V13L, E70D, Q79E, S80P
